Read-outs that look alike come from different tables or passages of the source.
T1: human LAIR-1-ECD (human, UniProt Q6GTX8 22-165)
T1 construct: Recombinant, expressed in mammalian cells; also called extracellular region of human LAIR-1
T1 chain: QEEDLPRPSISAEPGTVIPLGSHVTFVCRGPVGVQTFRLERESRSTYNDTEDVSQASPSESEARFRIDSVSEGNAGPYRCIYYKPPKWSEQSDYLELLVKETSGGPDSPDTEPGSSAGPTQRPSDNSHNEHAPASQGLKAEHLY

T2: cyno LAIR-1-ECD (cynomolgus monkey)
T2 construct: Recombinant, expressed in mammalian cells; also called extracellular region of cyno LAIR-1
T2 chain: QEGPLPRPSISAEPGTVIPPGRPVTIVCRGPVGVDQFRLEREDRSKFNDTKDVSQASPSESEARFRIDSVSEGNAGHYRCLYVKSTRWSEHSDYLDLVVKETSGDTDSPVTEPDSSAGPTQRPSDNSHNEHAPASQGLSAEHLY

T3: human MARCO expressed on cells (721.221-MARCO, 293T-MARCO) (human, UniProt Q9UEW3 1-520)
T3 construct: also called 721.221 cells expressing MARCO
T3 sequence: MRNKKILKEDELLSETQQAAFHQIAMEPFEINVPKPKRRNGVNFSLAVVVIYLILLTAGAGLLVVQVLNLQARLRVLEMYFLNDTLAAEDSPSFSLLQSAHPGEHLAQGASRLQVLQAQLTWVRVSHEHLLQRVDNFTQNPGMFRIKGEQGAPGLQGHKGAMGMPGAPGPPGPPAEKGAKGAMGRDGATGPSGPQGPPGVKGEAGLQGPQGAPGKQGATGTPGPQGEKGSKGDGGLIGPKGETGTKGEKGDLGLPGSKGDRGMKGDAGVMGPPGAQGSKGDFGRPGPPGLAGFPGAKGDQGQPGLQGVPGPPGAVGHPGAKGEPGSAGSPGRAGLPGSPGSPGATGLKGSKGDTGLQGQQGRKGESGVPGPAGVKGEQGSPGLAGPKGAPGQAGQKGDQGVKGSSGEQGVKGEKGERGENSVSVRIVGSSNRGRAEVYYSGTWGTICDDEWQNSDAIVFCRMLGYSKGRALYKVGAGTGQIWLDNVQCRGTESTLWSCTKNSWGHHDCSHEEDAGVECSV

T4: mouse LAIR-1 (form in the assay not stated) (mouse, UniProt Q8BG84 22-144, limits assumed)
T4 sequence: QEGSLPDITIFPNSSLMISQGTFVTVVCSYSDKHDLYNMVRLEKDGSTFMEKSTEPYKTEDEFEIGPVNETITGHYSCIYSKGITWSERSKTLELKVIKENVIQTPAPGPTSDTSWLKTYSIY

T5: human LAIR-1b (alternative isoform of human LAIR-1) on transfected 293T cells (human, UniProt Q6GTX8 22-287)
T5 chain: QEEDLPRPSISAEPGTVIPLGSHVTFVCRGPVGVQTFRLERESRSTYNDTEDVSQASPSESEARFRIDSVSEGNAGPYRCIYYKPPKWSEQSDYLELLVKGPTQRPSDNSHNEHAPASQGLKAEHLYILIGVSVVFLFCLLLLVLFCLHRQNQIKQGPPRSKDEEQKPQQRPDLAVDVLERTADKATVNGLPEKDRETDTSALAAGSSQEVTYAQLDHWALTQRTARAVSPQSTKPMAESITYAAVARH

B1: human LAIR-1-Fc (Fc fusion)
chain: QEEDLPRPSISAEPGTVIPLGSHVTFVCRGPVGVQTFRLERESRSTYNDTEDVSQASPSESEARFRIDSVSEGNAGPYRCIYYKPPKWSEQSDYLELLVKETSGGPDSPDTEPGSSAGPTQRPSDNSHNEHAPASQGLKAEHLY
notes: also called biotinylated human LAIR-1-Fc; not shown: a Fc region

Experiments:
human LAIR-1-ECD = biological target: T1, human LAIR-1-ECD; experiment: SPR (Biacore) as in Example 2
cyno LAIR-1-ECD = biological target: T2, cyno LAIR-1-ECD; experiment: SPR (Biacore) as in Example 2
[1] = biological target: T6, human LAIR-1-CD3ζ chimeric receptor on NFAT-GFP reporter cells (human, UniProt P20963 31-164, limits assumed); experiment: cell-based or functional assay
Target sequence in this assay (P20963 other isoform, or with tags, fused parts or gaps mutant limits assumed): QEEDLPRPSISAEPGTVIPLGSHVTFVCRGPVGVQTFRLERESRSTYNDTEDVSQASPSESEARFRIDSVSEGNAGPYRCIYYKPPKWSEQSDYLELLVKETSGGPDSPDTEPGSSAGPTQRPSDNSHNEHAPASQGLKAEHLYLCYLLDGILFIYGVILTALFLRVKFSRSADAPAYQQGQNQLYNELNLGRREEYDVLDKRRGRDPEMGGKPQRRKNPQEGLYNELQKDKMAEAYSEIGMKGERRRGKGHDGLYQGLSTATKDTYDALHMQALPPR

[2] = biological target: T6, human LAIR-1-CD3ζ chimeric receptor on …; experiment: cell-based or functional assay; remark: listed apart in the source
[3] = biological target: T7, cyno LAIR-1-CD3ζ chimeric receptor on NFAT-GFP reporter cells (cynomolgus monkey; human); experiment: cell-based or functional assay
Target sequence in this assay (P20963 other isoform, or with tags, fused parts or gaps mutant limits assumed): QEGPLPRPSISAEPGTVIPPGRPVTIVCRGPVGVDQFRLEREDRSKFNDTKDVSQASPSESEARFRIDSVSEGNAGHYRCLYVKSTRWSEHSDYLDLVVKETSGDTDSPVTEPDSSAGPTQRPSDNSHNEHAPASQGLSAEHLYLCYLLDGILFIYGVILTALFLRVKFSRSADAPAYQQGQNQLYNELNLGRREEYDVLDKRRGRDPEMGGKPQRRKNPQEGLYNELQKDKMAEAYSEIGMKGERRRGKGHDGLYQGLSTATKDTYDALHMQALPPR

[4] = biological target: T6, human LAIR-1-CD3ζ chimeric receptor on …; experiment: cell-based or functional assay; remark: listed apart in the source
[5] = biological target: T7, cyno LAIR-1-CD3ζ chimeric receptor on …; experiment: cell-based or functional assay; remark: listed apart in the source
[6] = biological target: T6, human LAIR-1-CD3ζ chimeric receptor on …; experiment: cell-based or functional assay; remark: listed apart in the source
[7] = biological target: T7, cyno LAIR-1-CD3ζ chimeric receptor on …; experiment: cell-based or functional assay; remark: listed apart in the source
human LAIR-1-Fc = biological target: B1; experiment: ELISA blocking: plate coated with 5 µg/mL human collagen type 1, antibody titrated, 1 µg/mL biotinylated human LAIR-1-Fc, streptavidin-HRP, OD650
[8] = biological target: T3, human MARCO expressed on cells …; experiment: flow cytometry, Fc protein at 10 µg/mL on 721.221 cells expressing MARCO, PE anti-Fc secondary
[9] = biological target: T4, mouse LAIR-1 (form in the assay not …); experiment: not described
[10] = biological target: T6, human LAIR-1-CD3ζ chimeric receptor on …; experiment: cell-based or functional assay; remark: listed apart in the source
[11] = biological target: T6, human LAIR-1-CD3ζ chimeric receptor on …; experiment: flow cytometry on human LAIR-1 reporter cells, PE anti-human Fc secondary, MFI (panel Human LAIR1 Cells)
[12] = biological target: T7, cyno LAIR-1-CD3ζ chimeric receptor on …; experiment: flow cytometry on cyno LAIR-1 reporter cells, PE anti-human Fc secondary, MFI (panel Cynomolgus Monkey LAIR1 Cells)
[13] = biological target: T5, human LAIR-1b (alternative isoform of …); experiment: flow cytometry on cells expressing human LAIR-1b, PE anti-human Fc secondary, MFI (panel Human LAIR1 (Truncated) Cells)

Kd (human LAIR-1-ECD) | koff (human LAIR-1-ECD) | kon (human LAIR-1-ECD) | Kd (cyno LAIR-1-ECD) | koff (cyno LAIR-1-ECD) | kon (cyno LAIR-1-ECD) | IC50 (read off the curve): % GFP+ human LAIR-1 reporter cells on coated MARCO-his [2] | IC50 (read off the curve): % GFP+ human LAIR-1 reporter cells on coated collagen 1 [2] | IC50 (read off the curve): % GFP+ human LAIR-1 reporter cells on coated collagen 4 [2] | IC50 (read off the curve): % GFP+ cyno LAIR-1 reporter cells on coated MARCO-his [3] | IC50 (read off the curve): % GFP+ cyno LAIR-1 reporter cells on coated collagen 1 [3] | IC50 (read off the curve): % GFP+ cyno LAIR-1 reporter cells on coated collagen 4 [3] | IC50 (read off the curve): % GFP+ cyno LAIR-1 reporter cells co-cultured with bEnd.3 cells [5] | IC50 (read off the curve): % GFP+ cyno LAIR-1 reporter cells on polymerized collagen matrix [7] | IC50 (read off the curve) (human LAIR-1-Fc) | binding result [8] | Binder | also measured
900 pM | 0.00069 s⁻¹ | 770000 M⁻¹ s⁻¹ | 16000 pM | 0.0043 s⁻¹ | 280000 M⁻¹ s⁻¹ | ~60 pM | ~40 pM | ~30 pM | ~200 pM | ~400 pM | ~200 pM | ~200 pM | ~200 pM | ~3000 pM | – | anti-LAIR-1 antibody ch62G10 (antibody, V domains shown, The prefix 'ch' is not defined) VH: EVQLVETGGGLVQPKGSLKLSCATSGFTFNINAMNWVRQAPGKGLEWVARIRTKNNNFATYYADSVKDRFTISRDDSQSMLYLQMNNLKTEDTAMYYCVRGPYFDYWGQGTTLTVSS VL: DIQMTQSPASQSASLGESVTITCLASQTIGTWLAWYQQKPGKSPQLLIYAATSLADGVPSRFSGSGSGTKFSFKISNLQAEDFVTYYCQQLYSTPYTFGGGTKLEIK | IC50 (read off the curve): % GFP+ human LAIR-1 reporter cells on coated MARCO-his [1]: ~70 pM; IC50 (read off the curve): % GFP+ human LAIR-1 reporter cells on coated collagen 1 [1]: ~100 pM; IC50 (read off the curve): % GFP+ human LAIR-1 reporter cells on coated collagen 4 [1]: ~100 pM; IC50 (read off the curve): % GFP+ human LAIR-1 reporter cells co-cultured with bEnd.3 cells [4]: ~40 pM; IC50 (read off the curve): % GFP+ human LAIR-1 reporter cells on polymerized collagen matrix [6]: ~30 pM
– | – | – | – | – | – | – | – | – | – | – | – | – | – | – | binds | LAIR-2-Fc (Fc fusion, LAIR-2 soluble protein fused to a Fc region; also called human LAIR-2-Fc; not shown: a Fc region) QEGALPRPSISAEPGTVISPGSHVTFMCRGPVGVQTFRLEREDRAKYKDSYNVFRLGPSESEARFHIDSVSEGNAGLYRCLYYKPPGWSEHSDFLELLVKESSGGPDSPDTEPGSSAGTVPGTEASGFDAP | –
– | – | – | – | – | – | – | – | – | – | – | – | – | – | – | binds | B1 | –
260 pM | 0.0006 s⁻¹ | 2.3e+06 M⁻¹ s⁻¹ | 4300 pM | 0.0016 s⁻¹ | 390000 M⁻¹ s⁻¹ | ~20 pM | ~20 pM | ~20 pM | ~60 pM | ~100 pM | ~80 pM | ~100 pM | ~90 pM | ~3000 pM | – | humanized anti-LAIR-1 antibody Hz47H1.v4 (antibody, human IgG1, kappa, N297G, V domains shown, Humanized 47H1 with reengineered VH CDR2 and VL CDR2) VH: EVQLVESGGGLVQPGGSLRLSCAASGFTFNINAMNWVRQAPGKGLEWVARIRTKNYNYATFYADSVKDRFTISRDDSKNSLYLQMNSLKTEDTAVYYCVRDRAGFFAYWGQGTTVTVSS VL: DIQMTQSPSSLSASVGDRVTITCLASQTIGTWLGWYQQKPGKAPKLLIYAATSLAEGVPSRFSGSGSGTDFTLTISSLQPEDFATYYCQQLYSTPLTFGGGTKVEIKR | binding result [9]: no binding; IC50 (M), reporter cell assay, ligand COLEC12 [10]: 1.2e-11 M; IC50 (M), reporter cell assay, ligand Collagen 1 [10]: 3.2e-11 M; IC50 (M), reporter cell assay, ligand Collagen 4 [10]: 3.2e-11 M; IC50 (M), reporter cell assay, ligand MARCO [10]: 3.2e-11 M; IC50 (M), reporter cell assay, ligand MBL [10]: 4.2e-11 M; IC50 (M), reporter cell assay, ligand Polymerized Collagen Matrix [10]: 3e-11 M; IC50 (M), reporter cell assay, ligand SPD [10]: 2e-11 M; IC50 (M), reporter cell assay, ligand Tumor Cell Collagens [10]: 1.6e-11 M; EC50 (read off the curve) [11]: ~200 pM; EC50 (read off the curve) [12]: ~1000 pM; EC50 (read off the curve) [13]: ~2000 pM

— US20220041711A1 (NGM BIOPHARMACEUTICALS, published 2022)
